Measured values from article PMC11065421, “An RNA-dependent and phase-separated active subnuclear compartment safeguards repressive chromatin domains” (Molecular Cell, 2024).
Values joined by “and” are separate entries in the source; they are usually repeats but may differ in a detail not shown here. Equal entries are not always repeated.

Target: the molecule itself
Assay: SEC; Superose 6 Increase 3.2/300; freshly purified recombinant protein concentrated up to 1 mg/ml; absorbance at 280 nm

B1: recombinant BAZ2AN (domain or fragment, UniProt Q91YE5 1-744, looked up)
chain: MEMEANDHFNFTGLPPAPAASGLKPSPSSGEGLYTNGSPMNFPQQGKSLNGDVNVNGLSTVSHTTTSGILNSAPHSSSTSHLHHPNVAYDCLWNYSQYPSANPGNNLKDPPLLSQFPGGQYPLNGILGGNRQPSSPSHNTNLRAGSQEFWANGTQSPMGLNFDSQELYDSFPDQNFEVMPNGPPSFFTSPQTSPMLGSSIQTFAPSQDVSSDIHPDEAAEKELTSVVAENGTGLVGSLELEEEQPELKMCGYNGSVSSVESLHQEVSVLVPDPTVSCLDDPSHLPDQLEDTPILSEDSLEPFDSLAAEPVSGSLYGIDDAELMGAEDKLPLEGNPVISALDCPALSNANAFSLLADDSQTSASIFVSPTSPPVLGESVLQDNSFGLNSCSDSEQEEIETQSSNFQRPLTEPAPDQPPSTQLHPAVSPTASPAASLTASAEISPAVSPVASSPVPPEVFVAVSPASSPALPAISLEASMTTPVTSPQGSPEPSPAAAFQTVSPARKNVSSAPKARADREETTGGAVAVSGSGDVLKRRIATPEEVRLPLQHGWRREVRIKKGSHRWQGETWYYGPCGKRMKQFPEVIKYLSRNVVHSVRREHFSFSPRMPVGDFFEERDTPEGLQWVQLSAEEIPSRIQAITGKRGRPRNNEKAKNKEVPKVKRGRGRPPKIKMPELLNKTDNRLPKKLETQEILSEDDKAKMTKNKKKMRQKVQRGESQTPVQGQARNKRKQDTKSLKQKDTKK
notes: BAZ2A (TIP5) N-terminal region, aa 1-744; also called BAZ2AN-Hist; source: E. coli BL21(DE3), purified (Glutathione Sepharose, PreScission cleavage, HisTrap)
  stoichiometry N: 4 units and 6 units
